Data on eight molecules can be found in patent US20130058962A1 (published 2013).

Experiment [1] deals with purified recombinant BoNT/A light chain (Clostridium botulinum, UniProt P0DPI1 2-448). As to the kind of experiment: ELISA on BoNT subunits / Western blot of reduced holotoxin. (In an ELISA, binding on a coated surface is turned into a signal by an enzyme label.)
For the next experiment, the target named is BoNT/A heavy chain (Clostridium botulinum, UniProt P0DPI1 449-1296). The experiment is described as above.
In experiment [2] the target is Clostridium difficile toxin B (TcdB) holotoxin (Clostridium difficile) (UniProt P18177). As to the kind of experiment: cell-based or functional assay.
Clostridium difficile toxin B (TcdB) holotoxin (Clostridium difficile), sequence (P18177 2-2366): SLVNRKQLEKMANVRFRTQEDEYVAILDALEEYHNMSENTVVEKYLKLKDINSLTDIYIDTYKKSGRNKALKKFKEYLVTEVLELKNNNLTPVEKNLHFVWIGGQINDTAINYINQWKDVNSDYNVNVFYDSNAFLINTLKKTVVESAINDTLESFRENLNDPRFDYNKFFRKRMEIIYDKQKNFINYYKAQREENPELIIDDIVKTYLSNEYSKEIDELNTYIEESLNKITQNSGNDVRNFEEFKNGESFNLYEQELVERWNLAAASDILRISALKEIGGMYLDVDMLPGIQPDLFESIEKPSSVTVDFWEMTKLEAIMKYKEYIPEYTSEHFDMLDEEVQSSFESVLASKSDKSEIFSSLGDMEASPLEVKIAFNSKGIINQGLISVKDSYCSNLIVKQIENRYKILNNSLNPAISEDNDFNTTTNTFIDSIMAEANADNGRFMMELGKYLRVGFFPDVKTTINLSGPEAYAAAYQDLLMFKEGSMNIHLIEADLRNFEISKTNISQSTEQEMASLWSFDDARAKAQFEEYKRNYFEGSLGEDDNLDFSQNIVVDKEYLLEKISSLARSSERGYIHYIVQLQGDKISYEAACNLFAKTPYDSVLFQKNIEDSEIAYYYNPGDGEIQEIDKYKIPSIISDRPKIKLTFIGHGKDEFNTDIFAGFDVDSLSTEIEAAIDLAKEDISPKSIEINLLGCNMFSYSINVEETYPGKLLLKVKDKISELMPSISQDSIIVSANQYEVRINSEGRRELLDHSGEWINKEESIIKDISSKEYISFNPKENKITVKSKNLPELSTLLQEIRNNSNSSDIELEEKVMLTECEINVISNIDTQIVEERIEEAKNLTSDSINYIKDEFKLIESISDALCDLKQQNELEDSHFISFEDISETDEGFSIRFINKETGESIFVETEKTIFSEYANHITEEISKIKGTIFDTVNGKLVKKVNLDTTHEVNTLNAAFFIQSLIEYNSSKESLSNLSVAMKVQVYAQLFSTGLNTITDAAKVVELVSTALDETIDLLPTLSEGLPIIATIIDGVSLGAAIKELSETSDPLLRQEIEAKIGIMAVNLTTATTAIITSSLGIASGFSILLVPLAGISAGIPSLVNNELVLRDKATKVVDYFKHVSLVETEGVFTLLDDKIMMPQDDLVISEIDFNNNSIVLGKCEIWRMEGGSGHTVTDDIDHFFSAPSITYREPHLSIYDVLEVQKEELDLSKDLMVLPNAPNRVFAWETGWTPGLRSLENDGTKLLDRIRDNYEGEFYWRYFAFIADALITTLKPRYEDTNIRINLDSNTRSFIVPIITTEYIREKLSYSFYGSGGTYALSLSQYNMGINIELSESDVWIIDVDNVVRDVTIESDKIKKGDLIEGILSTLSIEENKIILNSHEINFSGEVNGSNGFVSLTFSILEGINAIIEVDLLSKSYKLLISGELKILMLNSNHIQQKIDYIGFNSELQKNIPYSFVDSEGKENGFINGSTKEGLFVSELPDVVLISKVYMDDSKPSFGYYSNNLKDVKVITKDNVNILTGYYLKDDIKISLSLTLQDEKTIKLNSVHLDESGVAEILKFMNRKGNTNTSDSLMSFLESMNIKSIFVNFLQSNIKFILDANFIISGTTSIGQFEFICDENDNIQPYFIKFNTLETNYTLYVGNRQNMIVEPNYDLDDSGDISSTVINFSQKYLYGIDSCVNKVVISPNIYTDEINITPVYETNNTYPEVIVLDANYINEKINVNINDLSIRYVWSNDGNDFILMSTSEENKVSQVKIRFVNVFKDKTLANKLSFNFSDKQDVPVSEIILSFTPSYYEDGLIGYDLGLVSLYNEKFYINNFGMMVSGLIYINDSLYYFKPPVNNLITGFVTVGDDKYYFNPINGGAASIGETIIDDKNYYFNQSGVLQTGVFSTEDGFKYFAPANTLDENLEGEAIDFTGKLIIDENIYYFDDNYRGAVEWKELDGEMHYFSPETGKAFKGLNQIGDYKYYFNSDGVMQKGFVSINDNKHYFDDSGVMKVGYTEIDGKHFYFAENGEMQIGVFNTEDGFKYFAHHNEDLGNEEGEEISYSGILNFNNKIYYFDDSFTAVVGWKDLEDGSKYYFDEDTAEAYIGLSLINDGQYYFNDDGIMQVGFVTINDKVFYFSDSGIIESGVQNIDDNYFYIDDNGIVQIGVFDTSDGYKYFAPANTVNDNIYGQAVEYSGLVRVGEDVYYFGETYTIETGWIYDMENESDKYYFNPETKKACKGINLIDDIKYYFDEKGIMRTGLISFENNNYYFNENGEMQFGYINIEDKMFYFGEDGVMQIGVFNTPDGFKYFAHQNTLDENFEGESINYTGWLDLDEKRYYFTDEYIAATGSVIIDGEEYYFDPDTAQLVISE
Experiment [3] deals with Clostridium difficile toxin A (TcdA) holotoxin (Clostridium difficile) (UniProt P16154). The experiment is described as follows: cell-based or functional assay.
Clostridium difficile toxin A (TcdA) holotoxin (Clostridium difficile), sequence (P16154 whole entry): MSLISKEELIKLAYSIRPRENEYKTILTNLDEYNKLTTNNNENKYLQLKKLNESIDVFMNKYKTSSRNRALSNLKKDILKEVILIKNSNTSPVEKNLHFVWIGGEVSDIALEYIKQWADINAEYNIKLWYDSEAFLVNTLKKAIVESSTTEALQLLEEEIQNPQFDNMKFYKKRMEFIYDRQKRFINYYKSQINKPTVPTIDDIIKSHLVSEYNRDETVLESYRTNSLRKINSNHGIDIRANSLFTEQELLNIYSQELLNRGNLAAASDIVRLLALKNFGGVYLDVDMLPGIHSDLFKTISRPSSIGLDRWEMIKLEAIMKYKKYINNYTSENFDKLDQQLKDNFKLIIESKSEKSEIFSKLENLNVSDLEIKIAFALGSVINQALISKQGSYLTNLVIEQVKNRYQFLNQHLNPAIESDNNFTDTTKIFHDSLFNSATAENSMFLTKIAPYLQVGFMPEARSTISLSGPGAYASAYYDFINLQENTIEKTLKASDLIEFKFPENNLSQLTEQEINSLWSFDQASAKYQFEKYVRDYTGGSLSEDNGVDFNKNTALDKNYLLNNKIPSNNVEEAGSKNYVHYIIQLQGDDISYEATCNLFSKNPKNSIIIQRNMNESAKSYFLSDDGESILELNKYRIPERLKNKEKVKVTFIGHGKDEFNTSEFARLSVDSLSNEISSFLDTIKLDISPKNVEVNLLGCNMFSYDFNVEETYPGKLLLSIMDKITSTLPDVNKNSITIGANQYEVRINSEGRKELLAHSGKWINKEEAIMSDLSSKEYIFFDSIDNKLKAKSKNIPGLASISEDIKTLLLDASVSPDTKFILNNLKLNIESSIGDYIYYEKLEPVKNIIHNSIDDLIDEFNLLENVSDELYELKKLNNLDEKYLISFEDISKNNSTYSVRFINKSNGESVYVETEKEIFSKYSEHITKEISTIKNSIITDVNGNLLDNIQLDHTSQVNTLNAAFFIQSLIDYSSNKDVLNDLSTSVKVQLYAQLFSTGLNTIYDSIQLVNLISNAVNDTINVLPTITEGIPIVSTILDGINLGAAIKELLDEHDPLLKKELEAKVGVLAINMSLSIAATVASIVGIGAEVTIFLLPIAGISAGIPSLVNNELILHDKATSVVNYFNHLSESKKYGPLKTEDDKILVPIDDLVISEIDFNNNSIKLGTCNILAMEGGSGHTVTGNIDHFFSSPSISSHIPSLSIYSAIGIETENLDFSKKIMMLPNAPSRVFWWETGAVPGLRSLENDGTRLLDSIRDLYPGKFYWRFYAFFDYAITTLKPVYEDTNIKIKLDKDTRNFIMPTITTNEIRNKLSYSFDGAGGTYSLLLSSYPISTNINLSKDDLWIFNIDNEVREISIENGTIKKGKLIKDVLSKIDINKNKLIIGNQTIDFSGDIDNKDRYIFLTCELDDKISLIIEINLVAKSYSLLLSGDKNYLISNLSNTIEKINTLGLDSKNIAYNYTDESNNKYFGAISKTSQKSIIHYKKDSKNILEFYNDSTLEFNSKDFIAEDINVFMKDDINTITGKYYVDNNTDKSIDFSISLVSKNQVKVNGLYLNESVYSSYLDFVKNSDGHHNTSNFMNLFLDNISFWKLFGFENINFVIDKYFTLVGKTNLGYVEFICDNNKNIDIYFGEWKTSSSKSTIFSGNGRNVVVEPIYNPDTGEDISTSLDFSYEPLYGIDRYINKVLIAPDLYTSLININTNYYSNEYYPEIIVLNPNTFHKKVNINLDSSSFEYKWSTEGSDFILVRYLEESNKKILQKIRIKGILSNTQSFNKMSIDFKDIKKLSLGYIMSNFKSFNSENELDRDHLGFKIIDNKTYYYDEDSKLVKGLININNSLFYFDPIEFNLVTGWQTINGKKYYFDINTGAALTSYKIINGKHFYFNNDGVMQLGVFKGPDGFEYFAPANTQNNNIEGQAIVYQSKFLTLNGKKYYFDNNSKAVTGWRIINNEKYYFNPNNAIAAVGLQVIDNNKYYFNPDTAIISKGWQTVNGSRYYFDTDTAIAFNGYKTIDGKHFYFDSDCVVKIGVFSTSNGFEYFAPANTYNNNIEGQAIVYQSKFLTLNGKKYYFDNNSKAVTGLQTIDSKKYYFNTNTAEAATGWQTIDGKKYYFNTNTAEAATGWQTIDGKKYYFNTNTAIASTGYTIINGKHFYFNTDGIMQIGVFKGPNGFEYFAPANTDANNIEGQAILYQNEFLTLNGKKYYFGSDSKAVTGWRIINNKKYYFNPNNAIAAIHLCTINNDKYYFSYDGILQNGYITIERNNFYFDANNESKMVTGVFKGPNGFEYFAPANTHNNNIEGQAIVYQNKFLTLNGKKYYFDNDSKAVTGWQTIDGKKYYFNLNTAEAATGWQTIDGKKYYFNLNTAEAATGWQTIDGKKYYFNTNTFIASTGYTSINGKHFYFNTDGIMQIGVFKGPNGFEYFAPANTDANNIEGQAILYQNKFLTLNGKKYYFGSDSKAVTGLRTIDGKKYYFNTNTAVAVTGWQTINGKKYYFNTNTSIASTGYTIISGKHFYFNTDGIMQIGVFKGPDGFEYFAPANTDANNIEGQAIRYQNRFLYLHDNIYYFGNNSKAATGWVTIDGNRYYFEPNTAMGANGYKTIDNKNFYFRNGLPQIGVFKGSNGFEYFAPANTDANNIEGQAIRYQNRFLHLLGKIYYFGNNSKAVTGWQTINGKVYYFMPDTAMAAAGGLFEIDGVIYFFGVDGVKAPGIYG
The target in experiment [4] is T1, Botulinum neurotoxin serotype A1 (BoNT/A) holotoxin (Clostridium botulinum, UniProt P0DPI1 2-1296). The experiment is described as follows: binding competition assay.
For experiment [5], the target named is T1, Botulinum neurotoxin serotype A1 …. The experiment is described as follows: method not stated.

“And” between values parts separate entries of the source, which are not always exact repeats. Equal entries are not always repeated.

B1: ciA-G5 (VHH)
VHH: QVQLVESGGGLVQPGGSLRLSCQVSGFTFGDWVMSWFRQAPGKEREFVASITATSSLKYYADSVKGRFTISRDNVNNTLFLQMDRLKSEDTAVYYCRSPNYWGQGTQVTVSA
As for B1, the binding result (in experiment [1]; in the experiment with BoNT/A heavy chain) was “no binding” throughout.

B2: 5D/AA6 VHH heterodimer (bispecific antibody)
chain: QVQLVESGGGLVQPGGSLRLSCEASGFTLDYYGIGWFRQPPGKEREAVSYISASARTILYADSVKGRFTISRDNAKNAVYLQMNSLKREDTAVYYCARRRFSASSVNRWLADDYDVWGRGTQVAVSSEPKTPKPQGGGGSGGGGSGGGGSQLQLVETGGGLVQPGGSLRLSCAASGFTFSDYVMTWVRQAPGKGPEWIATINTDGSTMRDDSTKGRFTISRDNAKNTLYLQMTSLKPEDTALYYCARGRVISASAIRGAVRGPGTQVTVSSEPKTPKPQP
As to B2, in experiment [2], the fold neutralization of TcdB against the 5D/AH3 heterodimer is 3 fold and 4 fold. In experiment [3], this molecule displayed a fold neutralization of TcdA against the 5D/AH3 heterodimer (CT26 cell rounding) of 5 fold.

B3: JDQ-B2 (VHH)
VHH: QVQLVESGGGLVQPGGSLRLSCTVSGSIFDLPGMNWYRQAPGAQRELVADISSDGRRTNYADSVKGRFTMSRDNAKKTVYLQMDSLKPDDTAVYYCNVKFTHHWGQGIQVTVSS
Turning to B3, the binding result in experiment [4] is listed as “binds”.

B4: JDQ-C5 (VHH)
VHH: QVQLVESGGGLVQPGGSLRLSCTVSGSIFGLPGMSWYRQAPGAQRELVADISSDGGRTHYADSVKGRFTISRDNDKKTVYLQMDSLKPDDTAVYYCNVKFTHHWGQGIQVTVSS
Take B4: the binding result in experiment [4] was “binds”.

B5: JDQ-F9 (VHH)
VHH: QVQLVESGGGLVQDGGSLRLSCTTSGSIDSFNAIEWYRQAPGKQRELVASISSDGRRTNYADSVKGRFTISGDNAKNTVYLQMNSLKPEDTAVYYCHRPFTHYWGQGTQVTVSS
Take B5: the binding result in experiment [4] is “binds”.

B6: JDQ-E9 (VHH)
VHH: QVQLVESGGGLVRPGGSLRLSCVVSGFAYEMPMMGWYRQAPGNQRELVATIGTGGRMNYADSVKGRFTISRDNAKNTVYLQMNSLKPEDTAAYYCKIEFTNYWGQGTQVTVSS
Regarding B6, the binding result in experiment [4] is recorded as “binds”.

B7: scFv#7 (scFv)
scFv: SYELTQPPSMSVALGQTAKVTCQGDNLENFYVQWHQQKPGQAPVTVIFQDNKRPSGIPDRFSGSNSGNTATLTISGARTEDEADYYCQSGHSSIGGVFGSGTSLTVLGQPAAAGGGGSGGGGSGGGGSARQVQLQESGPSLVKPSQTLSLTCTVSGFSLTGNSVTWVRQAPGNVPEWLGGISRGGRTYYDTALKSRLSITRDTSKRQVSLSLSSVTTEDTAMYFCARSAYSTLYDYEYAADIYDWGPGLLVTVSSTSGAPVPYPDPLEPRAA
Turning to B7, the Kd (usually the constant that tells how readily two partners part at equilibrium) in experiment [5] was about 1 nM.

B8: ciA-A5 (VHH)
VHH: QVQLVESGGGLVQPGGSLRLSCAASAGNLDYYAIGWFRQAPGKEREGVSCISSSDGSTVYTDSVKGRFTISRDNTKNTVDLQMDNLKPEDTAVYYCATVVNYYCTAGGSIHASPYEIWGQGTQVTVSS
Turning to B8, the binding result (in experiment [1]; in the experiment with BoNT/A heavy chain) was “no binding” in each case.
